Laboratory results taken from patent US20200277383A1 (DRAGONFLY THERAPEUTICS, published 2020).

T1: EpCAM expressed on human cancer cell lines (H747, HCC827, HCT116) (human (human cancer cell lines), UniProt P16422 24-314)
T1 construct: also called Epithelial cell adhesion molecule; cell expressed EPCAM
T1 sequence: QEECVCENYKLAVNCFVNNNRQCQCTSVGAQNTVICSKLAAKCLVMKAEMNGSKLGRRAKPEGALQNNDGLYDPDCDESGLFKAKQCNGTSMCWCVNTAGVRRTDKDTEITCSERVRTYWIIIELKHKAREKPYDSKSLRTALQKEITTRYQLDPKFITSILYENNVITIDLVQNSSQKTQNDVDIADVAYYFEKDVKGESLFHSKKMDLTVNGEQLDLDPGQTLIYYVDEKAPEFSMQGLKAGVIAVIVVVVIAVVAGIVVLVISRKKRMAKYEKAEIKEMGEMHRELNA


Target: T1, EpCAM expressed on human cancer cell …
Assay: flow cytometry on H747 cells, MFI fold over background
Protocol: Human cancer cell lines expressing EPCAM were used to assess tumor antigen binding of TriNKETs derived from EPCAM targeting clone MT110 in F4 and F3′ formats. The human cell lines H747, HCC827 and HCT116 were used to assess binding of TriNKETs and mAb to cell expressed EPCAM. TriNKETs or mAb were diluted and incubated with the respective cells. Binding was detected using a fluorophore conjugated anti-human IgG secondary antibody. Cells were analyzed by flow cytometry, binding MFI to cell expressed EPCAM was normalized to human recombinant IgG1 stained controls to obtain fold over background values.

| binding result | Binder |
| --- | --- |
| binds | parental monoclonal antibody (mAb) targeting EPCAM (clone MT110) (antibody, V domains shown, detected with an anti-human IgG secondary antibody; also called parental mAb; Solitomab (MT110)) VH: VQLLEQSGAELVRPGTSVKISCKASGYAFTNYWLGWVKQRPGHGLEWIGDIFPGSGNIHYNEKFKGKATLTADKSSSTAYMQLSSLTFEDSAVYFCARLRNWDEPMDYWGQGTTVTVSS VL: ELVMTQSPSSLTVTAGEKVTMSCKSSQSLLNSGNQKNYLTWYQQKPGQPPKLLIYWASTRESGVPDRFTGSGSGTDFTLTISSVQAEDLAVYYCQNDYSYPLTFGAGTKLEIKG |
| binds | A49-F4-TriNKET-MT110 (other, also called EPCAM-targeting F4-TriNKET) heavy 1: EVQLLEQSGAELVRPGTSVKISCKASGYAFTNYWLGWVKQRPGHGLEWIGDIFPGSGNIHYNEKFKGKATLTADKSSSTAYMQLSSLTFEDSAVYFCARLRNWDEPMDYWGQGTTVTVSSASTKGPSVFPLAPSSKSTSGGTAALGCLVKDYFPEPVTVSWNSGALTSGVHTFPAVLQSSGLYSLSSVVTVPSSSLGTQTYICNVNHKPSNTKVDKKVEPKSCDKTHTCPPCPAPELLGGPSVFLFPPKPKDTLMISRTPEVTCVVVDVSHEDPEVKFNWYVDGVEVHNAKTKPREEQYNSTYRVVSVLTVLHQDWLNGKEYKCKVSNKALPAPIEKTISKAKGQPREPRVYTLPPCRDELTKNQVSLTCLVKGFYPSDIAVEWESNGQPENNYKTTPPVLVSDGSFTLYSKLTVDKSRWQQGNVFSCSVMHEALHNHYTQKSLSLSPGSGSGGGGSDIQMTQSPSSVSASVGDRVTITCRASQGISSWLAWYQQKPGKAPKLLIYAASSLQSGVPSRFSGSGSGTDFTLTISSLQPEDFATYYCQQGVSFPRTFGCGTKVEIKGGGGSGGGGSGGGGSGGGGSEVQLVESGGGLVKPGGSLRLSCAASGFTFSSYSMNWVRQAPGKCLEWVSSISSSSSYIYYADSVKGRFTISRDNAKNSLYLQMNSLRAEDTAVYYCARGAPMGAAAGWFDPWGQGTLVTVSS heavy 2: EVQLLEQSGAELVRPGTSVKISCKASGYAFTNYWLGWVKQRPGHGLEWIGDIFPGSGNIHYNEKFKGKATLTADKSSSTAYMQLSSLTFEDSAVYFCARLRNWDEPMDYWGQGTTVTVSSASTKGPSVFPLAPSSKSTSGGTAALGCLVKDYFPEPVTVSWNSGALTSGVHTFPAVLQSSGLYSLSSVVTVPSSSLGTQTYICNVNHKPSNTKVDKKVEPKSCDKTHTCPPCPAPELLGGPSVFLFPPKPKDTLMISRTPEVTCVVVDVSHEDPEVKFNWYVDGVEVHNAKTKPREEQYNSTYRVVSVLTVLHQDWLNGKEYKCKVSNKALPAPIEKTISKAKGQPREPQVCTLPPSRDELTENQVSLTCLVKGFYPSDIAVEWESNGQPENNYKTTPPVLDSDGSFFLYSWLTVDKSRWQQGNVFSCSVMHEALHNHYTQKSLSLSPG light: ELVMTQSPSSLTVTAGEKVTMSCKSSQSLLNSGNQKNYLTWYQQKPGQPPKLLIYWASTRESGVPDRFTGSGSGTDFTLTISSVQAEDLAVYYCQNDYSYPLTFGAGTKLEIKGRTVAAPSVFIFPPSDEQLKSGTASVVCLLNNFYPREAKVQWKVDNALQSGNSQESVTEQDSKDSTYSLSSTLTLSKADYEKHKVYACEVTHQGLSSPVTKSFNRGEC |
